Test system: Escherichia coli TOP10
Experiment: shrunken log2 fold change of peptide-encoding DNA abundance (4.5 h post-induction vs induction); higher = less antimicrobial activity (less host growth inhibition)
Details: time post-induction: 4.5 h; library: site-saturation at positions 5, 18, 19, 20
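Further: peptides expressed intracellularly from a pBAD plasmid library in pooled LB shake-flask culture, induced with 0.3% L-arabinose, DNA abundance read by NGS, three biological replicates, DESeq2 with apeglm shrinkage.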

| Sequence | shrunken log2 fold change |
| --- | --- |
| RRIRERPPRLPRPRPRPACGPRP | 0.14 |
| RRIRPRPPRLPRPRPRPPRDPRP | 0.521 |
| RRIRHRPPRLPRPRPRPRITPRP | -0.0394 |
| RRIRLRPPRLPRPRPRPQILPRP | -0.172 |
| RRIRDRPPRLPRPRPRPYEPPRP | -0.017 |
| RRIRKRPPRLPRPRPRPQNTPRP | 0.00556 |
| RRIRSRPPRLPRPRPRPKPPPRP | 0.292 |
| RRIRERPPRLPRPRPRPLPDPRP | -0.0462 |
| RRIRQRPPRLPRPRPRPAVHPRP | -0.0227 |
| RRIRCRPPRLPRPRPRPYYPPRP | -1.27 |
| RRIRARPPRLPRPRPRPFWRPRP | 0.36 |
| RRIRFRPPRLPRPRPRPRSMPRP | -0.408 |
| RRIRMRPPRLPRPRPRPTEPPRP | 0.383 |
| RRIRFRPPRLPRPRPRPYCQPRP | -0.131 |
| RRIRHRPPRLPRPRPRPCTVPRP | -0.0523 |
| RRIRWRPPRLPRPRPRPWQHPRP | -0.0883 |
| RRIRWRPPRLPRPRPRPEARPRP | 0.106 |
| RRIRYRPPRLPRPRPRPRPGPRP | 0.219 |
| RRIRKRPPRLPRPRPRPFWNPRP | -0.0468 |
| RRIRYRPPRLPRPRPRPGEAPRP | 0.124 |
| RRIRYRPPRLPRPRPRPQCRPRP | -0.23 |
| RRIRARPPRLPRPRPRPPTQPRP | 0.718 |

| Sequence | shrunken log2 fold change |
| --- | --- |
| RRIRGRPPRLPRPRPRPVLCPRP | 0.635 |
| RRIRGRPPRLPRPRPRPDWRPRP | 0.404 |
| RRIRRRPPRLPRPRPRPSALPRP | 0.392 |
| RRIRHRPPRLPRPRPRPANAPRP | -0.0554 |
| RRIRCRPPRLPRPRPRPSANPRP | 0.0237 |
| RRIRNRPPRLPRPRPRPDCIPRP | -0.194 |
| RRIRQRPPRLPRPRPRPHPTPRP | -0.13 |
| RRIRRRPPRLPRPRPRPDVVPRP | -0.0225 |
| RRIRDRPPRLPRPRPRPATFPRP | 0.222 |
| RRIRPRPPRLPRPRPRPPKWPRP | 0.469 |
| RRIRVRPPRLPRPRPRPLESPRP | 0.114 |
| RRIRFRPPRLPRPRPRPHTFPRP | -0.778 |
| RRIRARPPRLPRPRPRPWCYPRP | -0.306 |
| RRIRLRPPRLPRPRPRPSTWPRP | -0.53 |
| RRIRHRPPRLPRPRPRPIDEPRP | 0.142 |
| RRIRLRPPRLPRPRPRPMHAPRP | 0.12 |
| RRIRARPPRLPRPRPRPNVEPRP | 0.327 |
| RRIRHRPPRLPRPRPRPIHNPRP | -0.545 |
| RRIRYRPPRLPRPRPRPVSYPRP | -0.00297 |
| RRIRDRPPRLPRPRPRPDQIPRP | -0.0336 |
| RRIRMRPPRLPRPRPRPHMPPRP | -0.206 |
| RRIRQRPPRLPRPRPRPFAVPRP | -0.99 |

| Sequence | shrunken log2 fold change |
| --- | --- |
| RRIRFRPPRLPRPRPRPRQFPRP | -0.0547 |
| RRIRDRPPRLPRPRPRPPWHPRP | 0.148 |
| RRIRNRPPRLPRPRPRPRRMPRP | 0.207 |
| RRIRWRPPRLPRPRPRPTYHPRP | -0.0794 |
| RRIRVRPPRLPRPRPRPIQNPRP | -0.121 |
| RRIRPRPPRLPRPRPRPDKDPRP | -0.173 |
| RRIRGRPPRLPRPRPRPKYFPRP | -0.251 |
| RRIRSRPPRLPRPRPRPQQKPRP | -0.138 |
| RRIRWRPPRLPRPRPRPRMWPRP | 0.36 |
| RRIRKRPPRLPRPRPRPANPPRP | 0.071 |
| RRIRYRPPRLPRPRPRPEDWPRP | -0.252 |
| RRIRVRPPRLPRPRPRPATPPRP | 0.35 |
| RRIRFRPPRLPRPRPRPRDVPRP | 0.728 |
| RRIRPRPPRLPRPRPRPCPTPRP | 0.0557 |
| RRIRWRPPRLPRPRPRPFWPPRP | 0.161 |
| RRIRSRPPRLPRPRPRPQRAPRP | 0.123 |
| RRIRKRPPRLPRPRPRPDMAPRP | 0.0491 |
| RRIRKRPPRLPRPRPRPIWMPRP | -0.0467 |
| RRIRRRPPRLPRPRPRPRHYPRP | 0.279 |
| RRIRMRPPRLPRPRPRPSTSPRP | -0.0821 |
| RRIRARPPRLPRPRPRPAYAPRP | 0.476 |
| RRIRNRPPRLPRPRPRPEYTPRP | -0.0431 |

| Sequence | shrunken log2 fold change |
| --- | --- |
| RRIRRRPPRLPRPRPRPMRWPRP | 0.638 |
| RRIRVRPPRLPRPRPRPWLKPRP | 0.151 |
| RRIRWRPPRLPRPRPRPPGKPRP | 0.214 |
| RRIRNRPPRLPRPRPRPQTTPRP | -0.149 |
| RRIRWRPPRLPRPRPRPHQCPRP | -0.112 |
| RRIRNRPPRLPRPRPRPHNSPRP | -0.767 |
| RRIRDRPPRLPRPRPRPPNNPRP | -0.261 |
| RRIRSRPPRLPRPRPRPMCFPRP | -0.149 |
| RRIRSRPPRLPRPRPRPKKTPRP | -0.356 |
| RRIRMRPPRLPRPRPRPLMRPRP | 1.16 |
| RRIRDRPPRLPRPRPRPAIYPRP | 0.00069 |
| RRIRHRPPRLPRPRPRPNYYPRP | -0.639 |
| RRIRGRPPRLPRPRPRPFPRPRP | 1.01 |
| RRIRNRPPRLPRPRPRPAAKPRP | -0.0209 |
| RRIRLRPPRLPRPRPRPTQGPRP | 0.852 |
| RRIRHRPPRLPRPRPRPQQYPRP | -0.706 |
| RRIRVRPPRLPRPRPRPSKHPRP | -0.538 |
| RRIRTRPPRLPRPRPRPKPGPRP | 0.299 |
| RRIRPRPPRLPRPRPRPCACPRP | -0.129 |
| RRIRLRPPRLPRPRPRPTANPRP | 0.329 |
| RRIRYRPPRLPRPRPRPYKPPRP | -0.0475 |
| RRIRGRPPRLPRPRPRPFLIPRP | -0.0796 |

| Sequence | shrunken log2 fold change |
| --- | --- |
| RRIRWRPPRLPRPRPRPFLLPRP | -0.0846 |
| RRIRYRPPRLPRPRPRPGYAPRP | -0.456 |
| RRIRYRPPRLPRPRPRPGLEPRP | 0.114 |
| RRIRMRPPRLPRPRPRPYEMPRP | 0.0693 |
| RRIRDRPPRLPRPRPRPEFYPRP | 0.475 |
| RRIRMRPPRLPRPRPRPMLDPRP | 0.722 |
| RRIRARPPRLPRPRPRPKGTPRP | 0.233 |
| RRIRDRPPRLPRPRPRPGRSPRP | 0.0526 |
| RRIRVRPPRLPRPRPRPYQYPRP | -0.0296 |
| RRIRNRPPRLPRPRPRPSWRPRP | 0.0128 |
| RRIRPRPPRLPRPRPRPHEFPRP | 0.253 |
| RRIRWRPPRLPRPRPRPICGPRP | 0.0975 |
| RRIRFRPPRLPRPRPRPDDKPRP | -0.059 |
| RRIRMRPPRLPRPRPRPSAPPRP | 0.51 |
| RRIRHRPPRLPRPRPRPCVDPRP | -0.184 |
| RRIRRRPPRLPRPRPRPYCVPRP | -0.462 |
| RRIRDRPPRLPRPRPRPHESPRP | -0.0121 |
| RRIRWRPPRLPRPRPRPCMEPRP | -0.0563 |
| RRIRWRPPRLPRPRPRPQIRPRP | -0.0767 |
| RRIRKRPPRLPRPRPRPMFQPRP | -0.0168 |
| RRIRQRPPRLPRPRPRPGFLPRP | 0.107 |
